Assay results published in patent US20220347267A1, “METHODS TO IMPROVE PATIENT RESPONSE TO IMMUNE CHECKPOINT INHIBITORS AND FUNCTIONAL TESTS TO PREDICT RESPONSE” (Biomarker Strategies, LLC, priority 2019, published 2022).

Assays:
Assay in all cases: PD-L1 confocal microscopy, IFNγ stimulation
Assay type in all cases: cell-based, human
H1299 cells = system: H1299 cells
Text: (§1) To obtain fluorescent specimens, similar procedures are used when compared to flow cytometry. The sample is stained with a primary antibody that is specific for a protein of interest. The primary antibody can be conjugated to a fluorescent molecule or a secondary antibody can be used that attaches to the primary antibody. For intracellular staining of cells, the specimen can be fixed and permeabilized using methanol, formalin or a fixative containing a detergent. Subsequently, the specimen is stained with primary and/or secondary antibodies. For this dataset, samples were stained for PD-L1 in suspension using the same protocol that was used for the flow cytometry dataset. The protocol used was as follows:
(§2) Samples (150 uL per tube) were first incubated with a blocking reagent (BD cat #564219, Lot #9305316) at 1:20 for 15 min at room temperature. Alexa 488-conjugated PD-L1 antibody (CST cat #25048, Lot #2) and Alexa 488-conjugated isotype antibody (CST cat #2975, Lot #16) were added to experimental samples and isotype control samples, respectively, at a manufacturer recommended dilution of 1:50 and the samples were incubated for 30 min at room temperature. Other fluorophore-conjugates and PD-L1 antibodies, including those targeting different epitopes, can be readily used. Additionally, antibodies detecting other biomarkers with appropriate processing (e.g. permeabilization of cells) to predict response (e.g. p-STAT-1) can be used. Following the incubation with an antibody, 1 mL of 2% FBS in PBS was added to each tube to dilute the antibody. Samples were then centrifuged at 200 rcf for 5 min. Supernatant was carefully aspirated and 200 uL of 10% neutral buffered formalin (NBF) was added. Samples were then fixed for 10 min at room temperature. NBF was diluted with 1 mL of 2% FBS in PBS and the samples were centrifuged at 200 rcf for 5 min. Supernatant was aspirated and the cells were resuspended in 0.5 mL of 2% FBS in PBS for flow cytometric analysis. In this experiment, 10% NBF was used to fix cells, but other fixatives, for example, 4% paraformaldehyde can be used. For localization experiments an anti-phosphotyrosine antibody, anti-human/mouse, PE-Vio® 770 (Miltenyi Biotec, Cat #130-109-112) and an anti-PD-L1 antibody, anti-human, Brilliant Violet 650 (BV650; BD Biosciences, Cat #563740) were used. […]
(§3) PD-L1 was assessed in four cell lines (FIG. 35A). PD-L1 was quantified by analyzing FITC-PD-L1 using an 8-bit photomultiplier tube and quantified as raw arbitrary units (FIG. 35B). The PD-L1 expression of the four cell lines was quantified in treated and untreated conditions. […] Thus, PD-L1 expression can be measured qualitatively and quantitatively using confocal microscopy and other fluorescent microscopy techniques.

H1650 cells = system: H1650 cells
Text: as §1, §2, §3

H460 cells = system: H460 cells
Text: as §1, §2, §3

SKMES1 cells = system: SKMES1 cells
Text: as §1, §2, §3

B1: IFNγ: human IFNγ, modulator (10 ng/ml; Sigma Aldrich) (protein, UniProt P01579 24-161, looked up)
Interferon gamma: QDPYVKEAENLKKYFNAGHSDVADNGTLFLGILKNWKEESDRKIMQSQIVSFYFKLFKNFKDDQSIQKSVETIKEDMNVKFFNSNKKKRDDFEKLTNYSVTDLNVQRKAIHELIQVMAELSPAAKTGKRKRSQMLFRG
PD-L1 expression by confocal microscopy, untreated and IFNγ treated (H1299 cells): negative
PD-L1 expression by confocal microscopy, untreated and IFNγ treated (H1650 cells): negative
PD-L1 expression by confocal microscopy, untreated and IFNγ treated (H460 cells): adaptive expression
PD-L1 expression by confocal microscopy, untreated and IFNγ treated (SKMES1 cells): innate expression
